The text below walks through data of PMC10341432, “Cross-Linking Mass Spectrometry on P-Glycoprotein” (International Journal of Molecular Sciences, 2023).

Assay [1] concerns the target T1, P-glycoprotein (human), as expressed on NIH 3T3 MDR1 cells (human, UniProt P08183, N-glycans on ECL1).
T1 construct: P-glycoprotein (MDR1, ABCB1), human; integral membrane protein on the cell surface; Cell line a gift from M. Gottesman; also called Pgp; multi-drug resistance protein 1; source: NIH 3T3 MDR1 mouse fibroblasts, human Mdr1 gene-transduced, stably expressing; on living cells and in membrane preparation (Mem-PER Plus kit)
Nature of the assay: flow cytometry on cells; living NIH 3T3 MDR1 cells treated with 0, 50, 100 or 200 U/mL PNGase F; 10 µg/mL 15D3 or UIC2 for 30 min at 37 °C in glucose-PBS; Alexa-488 anti-mouse goat secondary antibody. The conditions noted are these: one partner purified.

In assay [2] the target is T2, P-glycoprotein (human) on NIH 3T3 MDR1 cells after PNGase F treatment (Homo sapiens, UniProt P08183, all N-linked oligosaccharides removed from ECL1 by PNGase F).
T2 construct: P-glycoprotein (MDR1, ABCB1), human; N-glycans of ECL1 removed on living cells; also called Pgp; deglycosylated Pgp; source: NIH 3T3 MDR1 mouse fibroblasts, human Mdr1 gene-transduced; living cells treated with PNGase F (50, 100 or 200 U/mL)
T2 sequence (P08183 whole entry): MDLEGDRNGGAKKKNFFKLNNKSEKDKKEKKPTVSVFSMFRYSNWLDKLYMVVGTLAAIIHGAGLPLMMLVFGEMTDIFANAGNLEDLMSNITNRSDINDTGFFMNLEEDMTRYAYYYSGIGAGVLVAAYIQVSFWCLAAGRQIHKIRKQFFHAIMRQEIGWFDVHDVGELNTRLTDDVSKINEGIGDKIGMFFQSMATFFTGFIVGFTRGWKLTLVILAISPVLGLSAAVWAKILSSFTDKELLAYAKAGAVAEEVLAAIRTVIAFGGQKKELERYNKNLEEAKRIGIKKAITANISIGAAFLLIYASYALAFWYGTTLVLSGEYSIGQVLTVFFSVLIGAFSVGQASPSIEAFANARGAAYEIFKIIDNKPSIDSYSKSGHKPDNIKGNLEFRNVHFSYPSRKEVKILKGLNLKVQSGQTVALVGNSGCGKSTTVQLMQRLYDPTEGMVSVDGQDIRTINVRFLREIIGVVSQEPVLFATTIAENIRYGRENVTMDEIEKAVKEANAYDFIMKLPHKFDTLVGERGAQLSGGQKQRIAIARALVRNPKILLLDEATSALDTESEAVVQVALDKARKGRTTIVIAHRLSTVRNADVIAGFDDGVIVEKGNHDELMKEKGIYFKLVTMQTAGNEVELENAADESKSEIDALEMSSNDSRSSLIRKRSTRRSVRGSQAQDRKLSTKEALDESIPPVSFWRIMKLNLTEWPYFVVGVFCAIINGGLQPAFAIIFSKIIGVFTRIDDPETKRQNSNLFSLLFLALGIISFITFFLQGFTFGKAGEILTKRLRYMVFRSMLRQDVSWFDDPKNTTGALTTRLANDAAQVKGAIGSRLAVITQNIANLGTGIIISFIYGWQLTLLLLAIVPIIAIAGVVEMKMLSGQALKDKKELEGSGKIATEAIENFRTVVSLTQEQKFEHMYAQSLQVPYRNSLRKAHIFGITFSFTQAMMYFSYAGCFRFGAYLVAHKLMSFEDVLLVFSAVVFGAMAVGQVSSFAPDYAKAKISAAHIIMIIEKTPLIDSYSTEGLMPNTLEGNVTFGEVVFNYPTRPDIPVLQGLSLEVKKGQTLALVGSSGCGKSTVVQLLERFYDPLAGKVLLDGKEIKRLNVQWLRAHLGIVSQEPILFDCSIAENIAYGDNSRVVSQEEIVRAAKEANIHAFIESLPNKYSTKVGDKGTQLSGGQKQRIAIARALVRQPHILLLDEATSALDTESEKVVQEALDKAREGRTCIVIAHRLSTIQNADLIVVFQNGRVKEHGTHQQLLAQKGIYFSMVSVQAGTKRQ
The description is as above. The conditions noted are these: one partner purified.

T1 sequence (P08183 whole entry): as above

B1: 15D3 mouse monoclonal anti-Pgp antibody (antibody, V domains shown)
VH: EVKVVESGGVLVRPGGSLKLSCAASGFTFSRYTMSWVRQTPEKRLEWVATISSGGGNTYYPDSVKGRFTVSRDNAMSSLYLQMSSLRSEDTALYYCARYGAGDAWFAYWGQGTLVTVSA
VL: ELAMTQTPLSLPVSLGDQASISCRSSQSIVHSTGNTYLEWYLQKPGQSPKLLIYKVSNRFSGVPDRFSGSGSGTDFTLKISRLEAEDLGVYYCFQGSHFPRTFGGGTRLEIK
notes: mouse IgG1 constant part; IgG1; also called 15D3 mAb; source: hybridoma (ATCC HB-11342) supernatant or mouse ascites, purified (Protein G)
Regarding B1, the binding result in assay [1] and in assay [2] was “binds” throughout.
